Measured values taken from patent publication US20210246166A1 (Bayer, published 2021).
Bridge positions count the residues as written; N and C are the ends. Square brackets hold non-standard residues; d marks the D form. Ends that are not written are not given here. * marks the point of attachment. X5 = Tetrahydropyranyl‑4‑acetic acid, O=C(CC1CCOCC1)*; Oic = O=C(O)[C@@H]1C[C@@H]2CCCC[C@@H]2N1; Butanoyl(3,3-Me2) = CC(C)(C)CC(=O)*; NMeI = CC[C@H](C)[C@H](NC)C(=O)O; aIle = CC[C@@H](C)[C@H](N)C(=O)O; tBuAla = CC(C)(C)C[C@H](N)C(=O)O; Pen = CC(C)(S)[C@H](N)C(=O)O; Phg = N[C@H](C(=O)O)c1ccccc1; NMeC = CN[C@@H](CS)C(=O)O; Sar = CNCC(=O)O

B1: Example 338: ((2S,3S)-2-[(3R)-3-Amino-2-oxopyrrolidin-1-yl]-3-niethylpentanoic acid)-C+SRSLPPIC+IAD-OH (peptide)
peptide: [(2S,3S)‑2‑((3R)-3-Amino-2-oxopyrrolidin-1-yl)‑3‑methylpentanoic acid]CSRSLPPICIAD-OH
modifications: disulfide 2-10
B2: Example 342: (Tetrahydropyranyl-4-acetic acid)-IC+SRS-((tBu)A)-PPIC+IPD-NH2 (peptide)
peptide: X5-ICSRS[tBuAla]PPICIPD-NH2
modifications: disulfide 2-10
SMILES: CC[C@H](C)[C@H](NC(=O)CC1CCOCC1)C(=O)N[C@H]1CSSC[C@@H](C(=O)N[C@H](C(=O)N2CCC[C@H]2C(=O)N[C@@H](CC(=O)O)C(N)=O)[C@@H](C)CC)NC(=O)[C@H]([C@@H](C)CC)NC(=O)[C@@H]2CCCN2C(=O)[C@@H]2CCCN2C(=O)[C@H](CC(C)(C)C)NC(=O)[C@H](CO)NC(=O)[C@H](CCCNC(=N)N)NC(=O)[C@H](CO)NC1=O
B3: Example 331: A-(allo-I)C+SRSLPPIC+IPD-NH2 (peptide)
peptide: A[aIle]CSRSLPPICIPD-NH2
modifications: disulfide 3-11; N-terminus assumed
SMILES: CC[C@@H](C)[C@H](NC(=O)[C@H](C)N)C(=O)N[C@H]1CSSC[C@@H](C(=O)N[C@H](C(=O)N2CCC[C@H]2C(=O)N[C@@H](CC(=O)O)C(N)=O)[C@@H](C)CC)NC(=O)[C@H]([C@@H](C)CC)NC(=O)[C@@H]2CCCN2C(=O)[C@@H]2CCCN2C(=O)[C@H](CC(C)C)NC(=O)[C@H](CO)NC(=O)[C@H](CCCNC(=N)N)NC(=O)[C@H](CO)NC1=O
B4: Example 333: (tert-Butylacetic acid)-IC+SRS-((tBu)A)-PPI-((N-Me)C)+I-NH2 (peptide)
peptide: {Butanoyl(3,3-Me2)}-ICSRS[tBuAla]PPI[NMeC]I-NH2
modifications: disulfide 2-10
SMILES: CC[C@H](C)[C@H](NC(=O)[C@@H]1CSSC[C@H](NC(=O)[C@@H](NC(=O)CC(C)(C)C)[C@@H](C)CC)C(=O)N[C@@H](CO)C(=O)N[C@@H](CCCNC(=N)N)C(=O)N[C@@H](CO)C(=O)N[C@@H](CC(C)(C)C)C(=O)N2CCC[C@H]2C(=O)N2CCC[C@H]2C(=O)N[C@@H]([C@@H](C)CC)C(=O)N1C)C(N)=O
B5: Example 329: ((N-Me)G)-IC+SRSLPPIC+I-((N-Me)G)-D-OH (peptide)
peptide: [Sar]ICSRSLPPICI[Sar]D-OH
modifications: disulfide 3-11; N-terminus assumed
SMILES: CC[C@H](C)[C@H](NC(=O)CNC)C(=O)N[C@H]1CSSC[C@@H](C(=O)N[C@H](C(=O)N(C)CC(=O)N[C@@H](CC(=O)O)C(=O)O)[C@@H](C)CC)NC(=O)[C@H]([C@@H](C)CC)NC(=O)[C@@H]2CCCN2C(=O)[C@@H]2CCCN2C(=O)[C@H](CC(C)C)NC(=O)[C@H](CO)NC(=O)[C@H](CCCNC(=N)N)NC(=O)[C@H](CO)NC1=O
B6: Example 344: AIC+SRS-(2-Amino-7-(tert-butoxy)-7-oxoheptanoic acid)-PPI-(Pen)+IPD-NH2 (peptide)
peptide: AICSRS[2‑Amino‑7‑(tert-butoxy)‑7‑oxoheptanoic acid]PPI[Pen]IPD-NH2
modifications: disulfide 3-11
B7: Example 326: AIC+SRSLP-(3,3-dimethyl-1,3-azasilolidine-5-carboxylic acid)-IC+IPD-NH2 (peptide)
peptide: AICSRSLP[3,3‑dimethyl‑1,3‑azasilolidine‑5‑carboxylic acid]ICIPD-NH2
modifications: disulfide 3-11
B8: Example 335: ((tBu)A)-IC+SRSLP-(Oic)-I-(Pen)+IP-OH (peptide)
peptide: [tBuAla]ICSRSLP[Oic]I[Pen]IP-OH
modifications: disulfide 3-11; N-terminus assumed
SMILES: CC[C@H](C)[C@H](NC(=O)[C@@H](N)CC(C)(C)C)C(=O)N[C@H]1CSSC(C)(C)[C@@H](C(=O)N[C@H](C(=O)N2CCC[C@H]2C(=O)O)[C@@H](C)CC)NC(=O)[C@H]([C@@H](C)CC)NC(=O)[C@@H]2C[C@@H]3CCCC[C@@H]3N2C(=O)[C@@H]2CCCN2C(=O)[C@H](CC(C)C)NC(=O)[C@H](CO)NC(=O)[C@H](CCCNC(=N)N)NC(=O)[C@H](CO)NC1=O
B9: Example 323: GIC+SRSLP-(Oic)-IC+IPD-OH (peptide)
peptide: GICSRSLP[Oic]ICIPD-OH
modifications: disulfide 3-11; N-terminus assumed
SMILES: CC[C@H](C)[C@H](NC(=O)CN)C(=O)N[C@H]1CSSC[C@@H](C(=O)N[C@H](C(=O)N2CCC[C@H]2C(=O)N[C@@H](CC(=O)O)C(=O)O)[C@@H](C)CC)NC(=O)[C@H]([C@@H](C)CC)NC(=O)[C@@H]2C[C@@H]3CCCC[C@@H]3N2C(=O)[C@@H]2CCCN2C(=O)[C@H](CC(C)C)NC(=O)[C@H](CO)NC(=O)[C@H](CCCNC(=N)N)NC(=O)[C@H](CO)NC1=O
B10: Example 339: ((N-Me)G)-IC+SRSLPPIC+IPE-OH (peptide)
peptide: [Sar]ICSRSLPPICIPE-OH
modifications: disulfide 3-11; N-terminus assumed
SMILES: CC[C@H](C)[C@H](NC(=O)CNC)C(=O)N[C@H]1CSSC[C@@H](C(=O)N[C@H](C(=O)N2CCC[C@H]2C(=O)N[C@@H](CCC(=O)O)C(=O)O)[C@@H](C)CC)NC(=O)[C@H]([C@@H](C)CC)NC(=O)[C@@H]2CCCN2C(=O)[C@@H]2CCCN2C(=O)[C@H](CC(C)C)NC(=O)[C@H](CO)NC(=O)[C@H](CCCNC(=N)N)NC(=O)[C@H](CO)NC1=O
B11: Example 340: ((N-Me)G)-((N-Me)I)-C+SRSLPPIC+IPD-NH2 (peptide)
peptide: [Sar][NMeI]CSRSLPPICIPD-NH2
modifications: disulfide 3-11; N-terminus assumed
SMILES: CC[C@H](C)[C@@H]1NC(=O)[C@@H]2CCCN2C(=O)[C@@H]2CCCN2C(=O)[C@H](CC(C)C)NC(=O)[C@H](CO)NC(=O)[C@H](CCCNC(=N)N)NC(=O)[C@H](CO)NC(=O)[C@@H](NC(=O)[C@H]([C@@H](C)CC)N(C)C(=O)CNC)CSSC[C@@H](C(=O)N[C@H](C(=O)N2CCC[C@H]2C(=O)N[C@@H](CC(=O)O)C(N)=O)[C@@H](C)CC)NC1=O
B12: Example 324: ((N-Me)G)-IC+SRSLP-((1R,3S,5R)-2-Azabicyclo[3.1.0]hexane-3-carboxylic acid)-IC+IPD-OH (peptide)
peptide: [Sar]ICSRSLP[(1R,3S,5R)‑2‑Azabicyclo(3.1.0)hexane‑3‑carboxylic acid]ICIPD-OH
modifications: disulfide 3-11
B13: Example 322: ((tBu)A)-GIC+SRSLP-(Oic)-I-(Pen)+IP-NH2 (peptide)
peptide: [tBuAla]GICSRSLP[Oic]I[Pen]IP-NH2
modifications: disulfide 4-12; N-terminus assumed
SMILES: CC[C@H](C)[C@H](NC(=O)CNC(=O)[C@@H](N)CC(C)(C)C)C(=O)N[C@H]1CSSC(C)(C)[C@@H](C(=O)N[C@H](C(=O)N2CCC[C@H]2C(N)=O)[C@@H](C)CC)NC(=O)[C@H]([C@@H](C)CC)NC(=O)[C@@H]2C[C@@H]3CCCC[C@@H]3N2C(=O)[C@@H]2CCCN2C(=O)[C@H](CC(C)C)NC(=O)[C@H](CO)NC(=O)[C@H](CCCNC(=N)N)NC(=O)[C@H](CO)NC1=O
B14: Example 325: ((N-Me)G)-IC+SRSLPPIC+(Phg)-PD-OH (peptide)
peptide: [Sar]ICSRSLPPIC[Phg]PD-OH
modifications: disulfide 3-11; N-terminus assumed
SMILES: CC[C@H](C)[C@H](NC(=O)CNC)C(=O)N[C@H]1CSSC[C@@H](C(=O)N[C@H](C(=O)N2CCC[C@H]2C(=O)N[C@@H](CC(=O)O)C(=O)O)c2ccccc2)NC(=O)[C@H]([C@@H](C)CC)NC(=O)[C@@H]2CCCN2C(=O)[C@@H]2CCCN2C(=O)[C@H](CC(C)C)NC(=O)[C@H](CO)NC(=O)[C@H](CCCNC(=N)N)NC(=O)[C@H](CO)NC1=O
B15: Example 337: AIC+SRS-((2S)-2-Amino-4,4,4-trifluorobutanoic acid)-PPI-((N-Me)C)+IPD-NH2 (peptide)
peptide: AICSRS[(2S)‑2‑Amino‑4,4,4‑trifluorobutanoic acid]PPI[NMeC]IPD-NH2
modifications: disulfide 3-11
B16: Example 336: IC+SRSLP-(Oic)-I-(Pen)+IP-NH2 (peptide)
peptide: ICSRSLP[Oic]I[Pen]IP-NH2
modifications: disulfide 2-10; N-terminus assumed
SMILES: CC[C@H](C)[C@H](N)C(=O)N[C@H]1CSSC(C)(C)[C@@H](C(=O)N[C@H](C(=O)N2CCC[C@H]2C(N)=O)[C@@H](C)CC)NC(=O)[C@H]([C@@H](C)CC)NC(=O)[C@@H]2C[C@@H]3CCCC[C@@H]3N2C(=O)[C@@H]2CCCN2C(=O)[C@H](CC(C)C)NC(=O)[C@H](CO)NC(=O)[C@H](CCCNC(=N)N)NC(=O)[C@H](CO)NC1=O
B17: Example 341: IC+SRSLP-(Oic)-I-(Pen)+I-NH2 (peptide)
peptide: ICSRSLP[Oic]I[Pen]I-NH2
modifications: disulfide 2-10; N-terminus assumed
SMILES: CC[C@H](C)[C@H](N)C(=O)N[C@H]1CSSC(C)(C)[C@@H](C(=O)N[C@H](C(N)=O)[C@@H](C)CC)NC(=O)[C@H]([C@@H](C)CC)NC(=O)[C@@H]2C[C@@H]3CCCC[C@@H]3N2C(=O)[C@@H]2CCCN2C(=O)[C@H](CC(C)C)NC(=O)[C@H](CO)NC(=O)[C@H](CCCNC(=N)N)NC(=O)[C@H](CO)NC1=O

Experiments:
[1] = target: T1, recombinant human MASP1 active protease (amino acids 297-699, C-terminal His Tag) (human, UniProt P48740 297-699); assay: cell-based or functional assay
T1 sequence: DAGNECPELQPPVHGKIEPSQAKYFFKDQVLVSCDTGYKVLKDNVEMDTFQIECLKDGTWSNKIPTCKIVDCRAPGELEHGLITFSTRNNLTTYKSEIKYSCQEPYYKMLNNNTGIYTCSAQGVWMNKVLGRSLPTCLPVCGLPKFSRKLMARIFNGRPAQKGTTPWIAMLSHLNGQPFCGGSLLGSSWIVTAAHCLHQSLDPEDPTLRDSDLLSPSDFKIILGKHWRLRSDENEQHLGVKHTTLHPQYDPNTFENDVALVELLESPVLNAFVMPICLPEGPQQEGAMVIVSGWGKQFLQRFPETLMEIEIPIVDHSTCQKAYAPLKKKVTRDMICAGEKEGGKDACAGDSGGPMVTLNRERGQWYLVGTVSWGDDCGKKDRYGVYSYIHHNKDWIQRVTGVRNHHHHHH

[2] = target: recombinant human MASP2 active protease (amino acids 297-686, C-terminal His Tag) (human, UniProt O00187 297-686); assay: cell-based or functional assay
Chain of recombinant human MASP2 active protease (amino acids 297-686, C-terminal His Tag) (O00187 other isoform, or with tags, fused parts or gaps limits assumed): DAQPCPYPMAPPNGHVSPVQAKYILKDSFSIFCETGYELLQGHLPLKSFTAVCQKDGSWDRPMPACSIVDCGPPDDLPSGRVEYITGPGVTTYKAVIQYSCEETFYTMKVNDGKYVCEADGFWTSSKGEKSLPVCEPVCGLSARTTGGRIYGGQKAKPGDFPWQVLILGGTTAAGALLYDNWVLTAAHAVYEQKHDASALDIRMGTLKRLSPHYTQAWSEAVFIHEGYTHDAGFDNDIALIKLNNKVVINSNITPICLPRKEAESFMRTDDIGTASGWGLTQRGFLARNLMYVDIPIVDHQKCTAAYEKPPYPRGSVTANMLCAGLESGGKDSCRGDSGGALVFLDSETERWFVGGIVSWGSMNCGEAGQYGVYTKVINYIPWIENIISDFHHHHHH

Binder	human MASP1 IC50 [1]	human MASP2 IC50 [2]
B1	26 nM	360 nM
B2	26 nM	17 nM
B3	24 nM	610 nM
B4	25 nM	8.4 nM
B5	24 nM	260 nM
B6	27 nM	51 nM
B7	23 nM	710 nM
B8	25 nM	180 nM
B9	6.96 nM	560 nM
B10	26 nM	640 nM
B11	26 nM	300 nM
B12	23 nM	72 nM
B13	22 nM	150 nM
B14	23 nM	450 nM
B15	25 nM	2000 nM
B16	25 nM	690 nM
B17	26 nM	430 nM
